Experimental data from the supplement of paper PMC5998384.

Legend:
HeLa Kyoto [1] = test: melting temperature (median over replicates), in situ; higher = more thermally stable
HeLa Kyoto [2] = test: solubility change mitosis vs G1/S (difference of NP-40 vs SDS log2 ratios) (log2 ratio difference); higher = more soluble in mitosis
HeLa Kyoto [3] = test: solubility in G1/S (NP-40 vs SDS abundance) (log2 ratio); higher = more soluble; conditions: cell cycle stage: G1/S
HeLa Kyoto [4] = test: thermal stability score vs G1/S (z-score of summed log2 fold changes over temperatures); higher = more thermally stable than in G1/S
[5] = cell cycle stage: early G1 (4.5 h after nocodazole release)
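Throughout, for melting temperature (median over replicates), in situ: HeLa Kyoto cells synchronized by double thymidine or nocodazole block, proteins quantified by TMT10plex mass spectrometry, three independent biological replicates.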
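Throughout, for solubility change mitosis vs G1/S (difference of NP-40 vs SDS log2 ratios): synchronized HeLa Kyoto cells (double thymidine block for G1/S, nocodazole release for mitosis), protein amounts in NP-40 versus SDS lysates quantified by mass spectrometry, three biological replicates.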
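Throughout, for solubility in G1/S (NP-40 vs SDS abundance): HeLa Kyoto cells arrested at G1/S by double thymidine block, proteins quantified by TMT10plex mass spectrometry in mild NP-40 versus SDS extracts, three biological replicates.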
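Throughout, for thermal stability score vs G1/S (z-score of summed log2 fold changes over temperatures): synchronized HeLa Kyoto cells, proteins quantified by TMT10plex mass spectrometry, three biological replicates, mitosis taken 0.5 h after nocodazole release, G1/S directly after double thymidine block.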

Sequence	melting temperature (HeLa Kyoto [1]; cell cycle stage: G1/S) [°C]	melting temperature (HeLa Kyoto [1]; cell cycle stage: mitosis) [°C]	solubility change mitosis (log2) (HeLa Kyoto [2])	solubility in G1/S (log2) (HeLa Kyoto [3])	thermal stability score (HeLa Kyoto [4]; [5])	thermal stability score (HeLa Kyoto [4]; cell cycle stage: mitosis)
MVAPGSVTSRLGSVFPFLLVLVDLQYEGAECGVNADVEKHLELGKKLLAAGQLADALSQFHAAVDGDPDNYIAYYRRATVFLAMGKSKAALPDLTKVIQLKMDFTAARLQRGHLLLKQGKLDEAEDDFKKVLKSNPSENEEKEAQSQLIKSDEMQRLRSQALNAFGSGDYTAAIAFLDKILEVCVWDAELRELRAECFIKEGEPRKAISDLKAASKLKNDNTEAFYKISTLYYQLGDHELSLSEVRECLKLDQDHKRCFAHYKQVKKLNKLIESAEELIRDGRYTDATSKYESVMKTEPSIAEYTVRSKERICHCFSKDEKPVEAIRVCSEVLQMEPDNVNALKDRAEAYLIEEMYDEAIQDYETAQEHNENDQQIREGLEKAQRLLKQSQKRDYYKILGVKRNAKKQEIIKAYRKLALQWHPDNFQNEEEKKKAEKKFIDIAAAKEVLSDPEMRKKFDDGEDPLDAESQQGGGGNPFHRSWNSWQGFNPFSSGGPFRFKFHFN [DNAJC3]	53.3	54.4	-0.0724	0.202	5	3.84
MIALFNKLLDWFKALFWKEEMELTLVGLQYSGKTTFVNVIASGQFNEDMIPTVGFNMRKITKGNVTIKLWDIGGQPRFRSMWERYCRGVSAIVYMVDAADQEKIEASKNELHNLLDKPQLQGIPVLVLGNKRDLPGALDEKELIEKMNLSAIQDREICCYSISCKEKDNIDITLQWLIQHSKSRRS [ARL8A]	54.3	54.4	-0.116	-0.0955	-1.51	-1.71
MAGPGPGAVLESPRQLLGRVRFLAEAARSLRAGRPLPAALAFVPREVLYKLYKDPAGPSRVLLPVWEAEGLGLRVGAAGPAPGTGSGPLRAARDSIELRRGACVRTTGEELCNGHGLWVKLTKEQLAEHLGDCGLQEGWLLVCRPAEGGARLVPIDTPNHLQRQQQLFGVDYRPVLRWEQVVDLTYSHRLGSRPQPAEAYAEAVQRLLYVPPTWTYECDEDLIHFLYDHLGKEDENLGSVKQYVESIDVSSYTEEFNVSCLTDSNADTYWESDGSQCQHWVRLTMKKGTIVKKLLLTVDTTDDNFMPKRVVVYGGEGDNLKKLSDVSIDETLIGDVCVLEDMTVHLPIIEIRIVECRDDGIDVRLRGVKIKSSRQRELGLNADLFQPTSLVRYPRLEGTDPEVLYRRAVLLQRFIKILDSVLHHLVPAWDHTLGTFSEIKQVKQFLLLSRQRPGLVAQCLRDSESSKPSFMPRLYINRRLAMEHRACPSRDPACKNAVFTQVYEGLKPSDKYEKPLDYRWPMRYDQWWECKFIAEGIIDQGGGFRDSLADMSEELCPSSADTPVPLPFFVRTANQGNGTGEARDMYVPNPSCRDFAKYEWIGQLMGAALRGKEFLVLALPGFVWKQLSGEEVSWSKDFPAVDSVLVKLLEVMEGMDKETFEFKFGKELTFTTVLSDQQVVELIPGGAGIVVGYGDRSRFIQLVQKARLEESKEQVAAMQAGLLKVVPQAVLDLLTWQELEKKVCGDPEVTVDALRKLTRFEDFEPSDSRVQYFWEALNNFTNEDRSRFLRFVTGRSRLPARIYIYPDKLGYETTDALPESSTCSSTLFLPHYASAKVCEEKLRYAAYNCVAIDTDMSPWEE [HECTD3]	51.8	51	-0.123	-0.0837	0.000139	-0.669
MQGARAPRDQGRSPGRMSALGRSSVILLTYVLAATELTCLFMQFSIVPYLSRKLGLDSIAFGYLQTTFGVLQLLGGPVFGRFADQRGARAALTLSFLAALALYLLLAAASSPALPGVYLLFASRLPGALMHTLPAAQMVITDLSAPEERPAALGRLGLCFGVGVILGSLLGGTLVSAYGIQCPAILAALATLLGAVLSFTCIPASTKGAKTDAQAPLPGGPRASVFDLKAIASLLRLPDVPRIFLVKVASNCPTGLFMVMFSIISMDFFQLEAAQAGYLMSFFGLLQMVTQGLVIGQLSSHFSEEVLLRASVLVFIVVGLAMAWMSSVFHFCLLVPGLVFSLCTLNVVTDSMLIKAVSTSDTGTMLGLCASVQPLLRTLGPTVGGLLYRSFGVPVFGHVQVAINTLVLLVLWRKPMPQRKDKVR [SLC22A18]	54.2		-0.181	-0.019	0.106	-0.446
MAAAAAAGPSPGSGPGDSPEGPEGEAPERRRKAHGMLKLYYGLSEGEAAGRPAGPDPLDPTDLNGAHFDPEVYLDKLRRECPLAQLMDSETDMVRQIRALDSDMQTLVYENYNKFISATDTIRKMKNDFRKMEDEMDRLATNMAVITDFSARISATLQDRHERITKLAGVHALLRKLQFLFELPSRLTKCVELGAYGQAVRYQGRAQAVLQQYQHLPSFRAIQDDCQVITARLAQQLRQRFREGGSGAPEQAECVELLLALGEPAEELCEEFLAHARGRLEKELRNLEAELGPSPPAPDVLEFTDHGGSGFVGGLCQVAAAYQELFAAQGPAGAEKLAAFARQLGSRYFALVERRLAQEQGGGDNSLLVRALDRFHRRLRAPGALLAAAGLADAATEIVERVARERLGHHLQGLRAAFLGCLTDVRQALAAPRVAGKEGPGLAELLANVASSILSHIKASLAAVHLFTAKEVSFSNKPYFRGEFCSQGVREGLIVGFVHSMCQTAQSFCDSPGEKGGATPPALLLLLSRLCLDYETATISYILTLTDEQFLVQDQFPVTPVSTLCAEARETARRLLTHYVKVQGLVISQMLRKSVETRDWLSTLEPRNVRAVMKRVVEDTTAIDVQVGLLYEEGVRKAQSSDSSKRTFSVYSSSRQQGRYAPSYTPSAPMDTNLLSNIQKLFSERIDVFSPVEFNKVSVLTGIIKISLKTLLECVRLRTFGRFGLQQVQVDCHFLQLYLWRFVADEELVHLLLDEVVASAALRCPDPVPMEPSVVEVICERG [VPS51]	49.3	49.3	-0.137	0.0503	0.245	0.774
MQKIKSLMTRQGLKSPQESLSDLGAIESLRVPGKEEFRELREQPSDPQAEQELINSIEQVYFSVDSFDIVKYELEKLPPVLNLQELEAYRDKLKQQQAAVSKKVADLILEKQPAYVKELERVTSLQTGLQLAAVICTNGRRHLNIAKEGFTQASLGLLANQRKRQLLIGLLKSLRTIKTLQRTDVRLSEMLEEEDYPGAIQLCLECQKAASTFKHYSCISELNSKLQDTLEQIEEQLDVALSKICKNFDINHYTKVQQAYRLLGKTQTAMDQLHMHFTQAIHNTVFQVVLGYVELCAGNTDTKFQKLQYKDLCTHVTPDSYIPCLADLCKALWEVMLSYYRTMEWHEKHDNEDTASASEGSNMIGTEETNFDRGYIKKKLEHGLTRIWQDVQLKVKTYLLGTDLSIFKYDDFIFVLDIISRLMQVGEEFCGSKSEVLQESIRKQSVNYFKNYHRTRLDELRMFLENETWELCPVKSNFSILQLHEFKFMEQSRSPSVSPSKQPVSTSSKTVTLFEQYCSGGNPFEIQANHKDEETEDVLASNGYESDEQEKSAYQEYDSDSDVPEELKRDYVDEQTGDGPVKSVSRETLKSRKKSDYSLNKVNAPILTNTTLNVIRLVGKYMQMMNILKPIAFDVIHFMSQLFDYYLYAIYTFFGRNDSLESTGLGLSSSRLRTTLNRIQESLIDLEVSADPTATLTAAEERKEKVPSPHLSHLVVLTSGDTLYGLAERVVATESLVFLAEQFEFLQPHLDAVMPAVKKPFLQQFYSQTVSTASELRKPIYWIVAGKALDYEQMLLLMANVKWDVKEIMSQHNIYVDALLKEFEQFNRRLNEVSKRVRIPLPVSNILWEHCIRLANRTIVEGYANVKKCSNEGRALMQLDFQQFLMKLEKLTDIRPIPDKEFVETYIKAYYLTENDMERWIKEHREYSTKQLTNLVNVCLGSHINKKARQKLLAAIDDIDRPKR [VPS50]	50.8	49.6	-0.108	-0.0656	0.281	0.511
